Biological target: the molecule itself
Test: ONE expansion microscopy of the purified protein

B1: full-length human GABAA receptor β3 subunit homopentamer (receptor)
chain: QSVNDPGNMSFVKETVDKLLKGYDIRLRPDFGGPPVCVGMNIDIASIDMVSEVNMDYTLTMYFQQYWRDKRLAYSGIPLNLTLDNRVADQLWVPDTYFLNDKKSFVHGVTVKNRMIRLHPDGTVLYGLRITTTAACMMDLRRYPLDEQNCTLEIESYGYTTDDIEFYWRGGDKAVTGVERIELPQFSIVEHRLVSRNVVFATGAYPRLSLSFRLKRNIGYFILQTYMPSILITILSWVSFWINYDASAARVALGITTVLTMTTINTHLRETLPKIPYVKAIDMYLMGCFVFVFLALLEYAFVNYIFFGRGPQRQKKLAEKTAKAKNDRSKSESNRVDAHGNILLTSLEVHNEMNEVSGGIGDTRNSAISFDNSGIQYRKQSMPREGHGRFLGDRSLPHKKTHLRRRSSQLKIKIPDLTDVNAIDRWSRIVFPFTFSLFNLVYWLYYVN
  binding result: binds
